Experimental data reported in patent US5851983A, “Elastase inhibitory polypeptide and process for production thereof by recombinant gene technology” (Teijin Limited, priority 1987, dated 1998).

Legend:
[1] = biological target: T1, polymorphonuclear leucocyte elastase from human sputum (Homo sapiens, UniProt P08246); assay: Treatment with polymorphonuclear leucocyte elastase from human sputum (Examples 27, 30); format: in vitro ADME; conditions: 37° C.; N-terminal sequencing of SDS-PAGE bands
T1 construct: Polymorphonuclear leukocyte elastase from human sputum (EPC Co; Funakoshi Yakuhin); purchased EPC Co. (via Funakoshi Yakuhin); host or cells: human sputum
T1 sequence (P08246 30-267): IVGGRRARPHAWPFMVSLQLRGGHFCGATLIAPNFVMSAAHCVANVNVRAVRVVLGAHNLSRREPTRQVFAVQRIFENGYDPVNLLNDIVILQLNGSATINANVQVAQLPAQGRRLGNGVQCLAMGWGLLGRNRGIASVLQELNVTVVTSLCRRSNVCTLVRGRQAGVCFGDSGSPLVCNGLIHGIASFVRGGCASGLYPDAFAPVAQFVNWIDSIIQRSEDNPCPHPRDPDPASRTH
Description: Polymorphonuclear leucocyte elastase from human sputum (EPC, Funakoshi Yakuhin) and SLPI were separately dissolved in a buffer (0.1M HEPES, 0.1M NaCl, 0.1% PEG 6000, pH 7.5) and the elastase solution was added to the SLPI solution, and the mixture was incubated at 37° C. Samples were taken as time elapsed, and to each sample were added Tris-HCl buffer (pH 6.8), SDS, 2-mercaptolethanol, glycerol, and Coomassie Brilliant Blue to final concentrations of 50 mM, 4 w/v %, 2 v/v %, 12 v/v % and 0.01 w/v % respectively. The mixture was subjected to SDS-polyacrylamide gel electrophoresis using Tricine (Sigma) as a polar buffer (Schagger, H., Anal. Biochem. 166, 368, 1987). After the electrophoresis, the gel was stained with Coomassie Brilliant Blue G-250, and decoloured with 50% (v/v) methanol/10% (v/v) acetic acid. […]
(3) Next, polypeptides thus generated were electrically transferred to a membrane (Immobilon-p^SQ Millipore) using a Milli Blot-SDE apparatus (Millipore). […] After drying, relevant bands were cut out, and the peptide was cleaved from the N-terminal using an Applied Biosystems Protein-Sequencer (Applied Biosystems; 477A), and after PTH-conversion, the resulting amino acid derivatives were analyzed by a PTH-Amino acid analyzer (Applied Biosystems, 120A) to determine the N-terminal amino acid sequence. […]

[2] = biological target: T1, polymorphonuclear leucocyte elastase from human sputum; assay: Effect of serum albumin on elastase inhibitory activity (Example 13); format: biochemical; conditions: in the presence of 0.8% or 8% calf serum albumin
Description: The inhibitory activity of a active-form (Asn^55 -Ala^107) SLPI fragment polypeptide on polymorphonuclear leucocyte elastase from human sputum was measured by the same procedure as in Example 12 in the presence of 0.8% or 8% calf serum albumin.

effect of calf serum albumin on elastase inhibitory activity [2]: had no effect on its activity
Substance: (Asn^55 -Ala^107) SLPI: polypeptide having an amino acid sequence starting with the 55th Asn and ending at the 107th Ala of SLPI (NPTRRKPGKCPVTYGQCLMLNPPNFCEMDGQCKRDLKCCMGMCGKSCVSPVKA)
selective cleavage sites with elastase from human sputum [1]: cleaved at the site between Thr^57 -Arg^58
